Where “and” joins values, the source holds several entries; their conditions need not be identical. Equal values may be shown once. Ends that are not written are not given here.
Experiments:
Assay in all cases: G assay
[1] = target: GST-NOS1 (nNOS) PDZ domain (human)
[2] = target: GST-PSD95 PDZ domain 1 (human)
[3] = target: GST-PSD95 PDZ domain 3 (human)
[4] = target: GST-PSD95 PDZ domain 2 (human)

| Binder | Average OD [1] | Average OD [2] | Average OD [3] | Average OD [4] |
| --- | --- | --- | --- | --- |
| VDPNSPAAKKKYVSYNNLVI (modifications not checked) [GLUR7 (metabotropic glutamate receptor) PL peptide] | 0.75 OD and 0.64 OD and 0.59 OD | 0.85 OD | 0.82 OD | – |
| ELLQFCRTPNPALKNGQYWV (modifications not checked) [CSPG4 (chondroitin sulfae proteoglycan 4, melanoma-associated) PL peptide] | 2.43 OD and 1.27 OD | – | – | – |
| QDFRRAFRRILARPWTQTAW (modifications not checked) [a-2B Adrenergic receptor PL peptide] | 3.54 OD and 2.52 OD | 1.59 OD and 0.87 OD | 3.74 OD and 2.98 OD | – |
| ALVLIAFCIIRRRPSAYQAL (modifications not checked) [CD68 PL peptide] | 0.67 OD | – | – | – |
| KDITSDSENSNFRNEIQSLV (modifications not checked) | – | – | – | 1.35 OD |
| SPQPDSTDNDDYDDISAA (modifications not checked) [CD6 PL peptide] | 0.59 OD | – | – | – |
| SYPTPRPYPKPAPSSGKDYV (modifications not checked) [claudin 1 PL peptide] | 0.9 OD | 0.95 OD | 0.85 OD | – |
| DGGARTEDEVQSYPSKHDYV (modifications not checked) | – | 1.25 OD | 1.05 OD | – |
| TQGFPGPATWRRISSLESEV (modifications not checked) [NMDA Glutamate Receptor 2C (cysteine-free) C-terminal 20mer peptide] | 0.49 OD | – | 1.46 OD and 1.17 OD | 3.56 OD and 2.89 OD and 2.07 OD |
| RSGATIPLVGQDIIDLQTEV (modifications not checked) | – | – | – | 1.23 OD |
| KTMPAAMYRLLTAQEQPVYI (modifications not checked) [MINT-1 PL peptide] | 4 OD and 3.76 OD | – | – | – |
| SSKSKSSEESQTFFGLYKL (modifications not checked) [Fas Ligand PL peptide] | 1.99 OD and 1.93 OD | 1.23 OD | 1.07 OD | – |
| HSCCNRARQERLQRRRETQV (modifications not checked) [HPV-E6 #18 PL peptide] | 2.14 OD | – | – | – |
| LNSSSNRRVYKKMPSIESAV (modifications not checked) | – | – | – | 3.37 OD and 2.67 OD and 2.29 OD |
| LGYSIPSRSGASGLDKRDYV (modifications not checked) [claudin 9 PL peptide] | 0.51 OD | 0.82 OD | – | – |
| HDFRRAFKKILARGDRKRIV (modifications not checked) [alpha-2A Adrenergic receptor PL peptide] | 0.96 OD and 0.73 OD | – | – | – |
| LNSCSNRRVYKKMPSIESDV (modifications not checked) [NMDAR2A C-terminal 20mer peptide] | – | 4.07 OD and 4 OD | – | – |
| HHLVAQRDIRQFQLQHWLAI (modifications not checked) [noradrenaline transporter PL peptide] | 1.08 OD | – | 0.82 OD and 0.7 OD | – |
| TTNNNPNSAVNIKKIFTDV (modifications not checked) [KV1.3 PL peptide] | 0.67 OD | 2.28 OD and 1.12 OD | 1 OD | 1.06 OD |
| YGRKKRRQRRRKLSSIESDV (not fully specified) [[…] (Tat transporter fused to the C-terminal 9 amino acids of NMDA Receptor 2B)] | – | 3.87 OD and 2.13 OD and 1.4 OD | – | 4.06 OD and 3.53 OD and 3.1 OD |

| Binder | Average OD [1] | Average OD [2] | Average OD [3] | Average OD [4] |
| --- | --- | --- | --- | --- |
| AWDDSARAAGGQGLHVTAL (modifications not checked) [LPAP PL peptide] | 0.77 OD | – | – | – |
| VHKVRNKFKAKCSLCRLYII (modifications not checked) [HPV-E6 #63 PL peptide] | 2.55 OD and 4 OD | 4 OD and 2.67 OD | 4 OD | 4 OD and 2.62 OD |
| RIAYSLLGLKDQVNTVGIPI (modifications not checked) [ephrin A2 PL peptide] | 1.83 OD and 4 OD | – | – | – |
| VGTLLLERVIFPSVKIATLV (modifications not checked) [AdenoE4 typ9 PL peptide] | 3.64 OD and 2.73 OD and 4 OD | – | – | – |
| PGQPPKVKSEFNSYSLTGYV (modifications not checked) [claudin 2 PL peptide] | 0.69 OD | 1.03 OD and 0.85 OD | 0.79 OD | – |
| LAVLAYSITLVMLWSIWQYA (modifications not checked) [Serotonin receptor 3a PL peptide] | 1.02 OD | – | – | – |
| QISPGGLEPPSEKHFRETEV (modifications not checked) [20 C-terminal amino acids from TAX] | – | – | – | 2.39 OD |
| DFRPSFKHILFRRARRGFRQ (modifications not checked) [alpha-2C Adrenergic receptor PL peptide] | 3.02 OD and 2.09 OD | 2.05 OD and 1.26 OD | 1.72 OD and 1.19 OD | – |
| KAGYRAPRSYPKSNSSKEYV (modifications not checked) [claudin 7 PL peptide] | 1.01 OD and 0.93 OD | 1.28 OD and 1.08 OD | 0.92 OD and 0.86 OD | – |
| RELVDRGEVRQFTLRHWLKV (modifications not checked) [Dopamine transporter PL peptide] | 1.38 OD and 1.27 OD and 1.1 OD | – | – | – |
| SSPDSSYQGKGFVMSRAMYV (modifications not checked) [Nectin 2 PL peptide] | 0.54 OD | 1.01 OD | 0.91 OD | – |
| SSSQSLESDGSYQKPSYIL (modifications not checked) [CD62E PL peptide] | 0.5 OD | – | – | – |
| GRWTGRAMSAWKPTRRETEV (modifications not checked) [HPV E6 #35 (cysteine-free) PL peptide] | 0.74 OD and 0.62 OD | 4 OD and 3.08 OD | 4 OD | 2.82 OD |
| PIPAGGCTFSGIFPTLTSPL (modifications not checked) [KIAA 1481 PL peptide] | 0.71 OD | – | – | – |
| PYSELNYETSHYPASPDSWV (modifications not checked) [catenin-delta 2 PL peptide] | 2.1 OD | 1.18 OD | – | – |
| GGDLGTRRGSAHFSSLESEV (modifications not checked) [NMDAR2D C-terminal 20mer peptide] | – | 0.86 OD and 0.77 OD | – | 3.11 OD and 2.22 OD and 1.31 OD |
| SFTSILTCHQRRTQRKETVA (modifications not checked) [GluR5-2 (rat) PL peptide] | 0.65 OD | 3.12 OD and 2.26 OD | 4 OD | – |
| VPSDNIDSQGRNASINDSLL (modifications not checked) [beta-2 Adrenergic Receptor PL peptide] | 0.85 OD | – | – | – |
| TGSALQAWRHTSRQATESTV (modifications not checked) | – | 3.86 OD | 0.78 OD | – |
